Test results taken from patent publication US20240124560A1 (Scripps Research, published 2024).
Where a chain is given by its changes, count along the chain named. Names and notes keep the numbering of the source.

Legend:
HIV-1 Du156.12 Env [1] = molecular target: HIV-1 Du156.12 Env (HIV-1 Du156.12); assay: cell-based or functional assay
HIV-1 HxB2 Env [2] = molecular target: T1, HIV-1 HxB2 Env (HIV-1 HxB2, UniProt P04578 33-856); assay: cell-based or functional assay
HIV-2 C4 chimera Env = HIV-2 C4 chimera Env (HIV-2 (HIV-1 MPER) chimera); assay: cell-based or functional assay
HIV-1 Du156.12 Env [3] = molecular target: HIV-1 Du156.12 Env (HIV-1 Du156.12); assay: cell-based or functional assay; remark: listed apart in the source
[4] = molecular target: HIV-2 Env (parental virus of the chimeras) (HIV-2); assay: cell-based or functional assay
HIV-2 C3 chimera Env = HIV-2 C3 chimera Env (HIV-2 (HIV-1 MPER) chimera); assay: cell-based or functional assay
HIV-1 Du156.12 Env [5] = molecular target: HIV-1 Du156.12 Env (HIV-1 Du156.12); assay: cell-based or functional assay; remark: listed apart in the source
HIV-1 HxB2 Env [6] = molecular target: T1, HIV-1 HxB2 Env; assay: cell-based or functional assay; remark: listed apart in the source
HIV-1 HxB2 Env [7] = molecular target: T1, HIV-1 HxB2 Env; assay: BN-PAGE mobility shift of HxB2 Env with Fab, relative shift
HIV-2 C1 chimera Env = HIV-2 C1 chimera Env (HIV-2 (HIV-1 MPER) chimera); assay: cell-based or functional assay

B1: H4K3_SFS28EPE (antibody, V domains shown)
VH: KVQLVQSGAELKKPWSSVRVSCKASGGEPESYAFNWVRQAPGQRLEWLGGIVPLVSSTNYAQRFRGRVTISADRSTSTVYLEMTGLTSADTAVYFCAREGEGWFGRPLRAFEFWGQGTLVTVST
VL: EIVLTQSPGTFALSPGERATLSCRASQSVSGGALAWYQQKAGQAPRLLIYDTSGRATGVPGRFSGSGSETDFSLTISRLEPEDFAVYYCQQYGTSQSTFGQGTRLETR
Fold Increase (neutralization IC50 over H4K3), Du156.12 (HIV-1 Du156.12 Env [1]): 26.3 fold | IC50, neutralization of Du156.12 pseudovirus (HIV-1 Du156.12 Env [1]): 2.89 µg/mL | Fold Increase (neutralization IC50 over H4K3), HxB2 (HIV-1 HxB2 Env [2]): 16.4 fold | IC50, neutralization of HxB2 pseudovirus (HIV-1 HxB2 Env [2]): 1.62 µg/mL

B2: PGZL1.H4K3 (antibody, V domains shown)
VH: B1 VH with E28S, P29F, E30S
VL: B1 VL with D51G
IC50 (µg/ml), neutralization of chimeric virus (HIV-2 C4 chimera Env): 1.17 µg/mL | IC50 (µg/ml), neutralization of HIV-1 Du156.12 (HIV-1 Du156.12 Env [3]): 0.27 µg/mL | IC50 (µg/ml), neutralization of HIV-2 [4]: > 10 µg/mL | IC50 (µg/ml), neutralization of chimeric virus (HIV-2 C3 chimera Env): > 10 µg/mL | IC50, neutralization of Du156.12 pseudovirus (HIV-1 Du156.12 Env [1]): 0.11 µg/mL | IC50, neutralization of HxB2 pseudovirus (HIV-1 HxB2 Env [2]): 0.099 µg/mL

B3: H4K3_RS73PE (antibody, V domains shown)
VH: B1 VH with E28S, P29F, E30S, R74P, S75E
VL: B1 VL
Fold Increase (neutralization IC50 over H4K3), Du156.12 (HIV-1 Du156.12 Env [1]): 7.4 fold | IC50, neutralization of Du156.12 pseudovirus (HIV-1 Du156.12 Env [1]): 0.814 µg/mL | Fold Increase (neutralization IC50 over H4K3), HxB2 (HIV-1 HxB2 Env [2]): 3 fold | IC50, neutralization of HxB2 pseudovirus (HIV-1 HxB2 Env [2]): 0.299 µg/mL

B4: H4K3_5M (antibody, V domains shown)
VH: B1 VH with R74P, S75E
VL: B1 VL
Fold Increase (neutralization IC50 over H4K3), Du156.12 (HIV-1 Du156.12 Env [1]): 84.5 fold | IC50, neutralization of Du156.12 pseudovirus (HIV-1 Du156.12 Env [1]): 9.31 µg/mL | Fold Increase (neutralization IC50 over H4K3), HxB2 (HIV-1 HxB2 Env [2]): 37.7 fold | IC50, neutralization of HxB2 pseudovirus (HIV-1 HxB2 Env [2]): 3.72 µg/mL

B5: PGZL1_gVmDmJ F100A (antibody, V domains shown)
V domain 1: QVQLVQSGAEVKKPGSSVKVSCKASGGTFSSYAISWVRQAPGQGLEWMGGIIPIFGTANYAQKFQGRVTITADKSTSTAYMELSSLRSEDTAVYYCAREGEGWAGKPLRAFEFWGQGTVITVSS
V domain 2: not shown
decrease in neutralization against the parent antibody (HIV-1 Du156.12 Env [5]): > 10 fold | decrease in neutralization against the parent antibody (HIV-1 HxB2 Env [6]): > 10 fold

B6: PGZL1_gVmDmJ_W99A (antibody, V domains shown)
V domain 1: B5 V domain 1 with W103A, A104F
V domain 2: not shown
decrease in neutralization against the parent antibody (HIV-1 Du156.12 Env [5]): > 10 fold | decrease in neutralization against the parent antibody (HIV-1 HxB2 Env [6]): > 10 fold

B7: PGZL1_gVgDgJ Fab (Fab, V domains shown)
VH: B5 V domain 1 with A104F, K106E, E112D, F113V
VL: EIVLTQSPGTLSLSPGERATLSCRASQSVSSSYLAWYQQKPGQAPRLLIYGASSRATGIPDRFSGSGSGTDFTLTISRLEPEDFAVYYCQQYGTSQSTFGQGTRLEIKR
binding result (HIV-1 HxB2 Env [7]): binds

B8: PGZL1 (antibody, V domains shown)
VH: EVQLVQSGGEVKRPGSSVTVSCKATGGTFSTLAFNWVRQAPGQGPEWMGGIVPLFSIVNYGQKFQGRLTIRADKSTTTVFLDLSGLTSADTATYYCAREGEGWFGKPLRAFEFWGQGTVITVSS
VL: DVVMTQSPGTLSLSPGERATLSCRASQSVSGGALAWYQQKPGQAPRLLIYDTSSRPTGVPGRFSGSGSGTDFSLTISRLEPEDFAVYYCQQYGTSQSTFGQGTRLEIK
IC50 (µg/ml), neutralization of chimeric virus (HIV-2 C4 chimera Env): 2.38 µg/mL | IC50 (µg/ml), neutralization of HIV-1 Du156.12 (HIV-1 Du156.12 Env [3]): 0.623 µg/mL | IC50 (µg/ml), neutralization of chimeric virus (HIV-2 C1 chimera Env): 0.98 µg/mL | IC50 (µg/ml), neutralization of HIV-2 [4]: > 10 µg/mL | IC50 (µg/ml), neutralization of chimeric virus (HIV-2 C3 chimera Env): > 10 µg/mL

B9: PGZL1 Fab (Fab, V domains shown)
VH: B8 VH
VL: B8 VL
notes: also called Fab PGZL1
binding result (HIV-1 HxB2 Env [7]): binds

B10: PGZL1_W99A (antibody, V domains shown)
VH: B8 VH with E1Q, W103A
VL: B8 VL
decrease in neutralization against the parent antibody (HIV-1 Du156.12 Env [5]): > 10 fold | decrease in neutralization against the parent antibody (HIV-1 HxB2 Env [6]): > 10 fold

B11: PGZL1_F100A (antibody, V domains shown)
VH: B8 VH with E1Q, F104A
VL: B8 VL
decrease in neutralization against the parent antibody (HIV-1 Du156.12 Env [5]): > 10 fold | decrease in neutralization against the parent antibody (HIV-1 HxB2 Env [6]): > 10 fold
